The text below walks through data of publication PMC7144919.

Read-outs that look alike come from different tables or passages of the source.

The target of data set [1] is T1, Hfq WT (Table 3) (Escherichia coli, UniProt P0A6X3 2-69). Put plainly: fluorescence polarization. For orientation: In fluorescence polarisation assays a small probe gives low polarisation when free and higher when bound to something large.
Data set [2] addresses T2, Hfq F42W (Escherichia coli, UniProt P0A6X3 2-69, F42W). Put plainly: tryptophan fluorescence quenching.
In data set [3] the target is T3, Hfq Core (Escherichia coli, UniProt P0A6X3 2-69). Put plainly: fluorescence polarization.
The target in data set [4] is Hfq(2-69:N13A) (Escherichia coli, UniProt P0A6X3 2-69, N13A). Put plainly: fluorescence polarization.
Data set [5] concerns the target Hfq(2-69:R16A/R17A) (Escherichia coli, UniProt P0A6X3 2-69, R16A;R17A). Put plainly: fluorescence polarization.
Data set [6] has as its target Hfq(2-69:Q41E) (Escherichia coli, UniProt P0A6X3 2-69, Q41E). Put plainly: fluorescence polarization.
Data set [7] addresses Hfq(2-69:Q41A) (Escherichia coli, UniProt P0A6X3 2-69, Q41A). Put plainly: fluorescence polarization.
Data set [8] addresses Hfq(2-69:R16A) (Escherichia coli, UniProt P0A6X3 2-69, R16A). Put plainly: fluorescence polarization.
Data set [9] deals with T2, Hfq F42W. Put plainly: tryptophan fluorescence quenching. This is another data set of the same source.
In data set [10] the target is T3, Hfq Core. Put plainly: fluorescence polarization. The source holds these as a separate data set.
The target of data set [11] is Hfq full length WT (Escherichia coli, UniProt P0A6X3 2-102). Put plainly: fluorescence polarization.
For data set [12], the target named is Sa Hfq (Staphylococcus aureus, UniProt A0A0H3JV59 1-77). Put plainly: fluorescence polarization.
The target in data set [13] is T1, Hfq WT (Table 3). Put plainly: fluorescence polarization. The source holds these as a separate data set.

A word on the Kd: it is the concentration at which binding is half-saturated. Low values mean higher affinity, high ones lower affinity. In the case of AUUUUUUCGAAUCGAAAGGUUCA (structured_RNA) [site A], binding in data set [1] was characterised by a dissociation constant (Kd) of 22.7 ± 1.5 nM. Moreover, the binding result in data set [2] was “binds”.

B1: RacA DNA 14 bp (dsDNA)
DNA 1: TGACGCCGGCGTCA
DNA 2: TGACGCCGGCGTCA
As to B1, in data set [3], the Kd was found to be 16.2 ± 3.7 nM.

B2: xtal DNA, 30 bp with three 6-bp A-tracts (dsDNA)
DNA 1: CGGCAAAAAACGGCAAAAAACGGCAAAAAA
DNA 2: TTTTTTGCCGTTTTTTGCCGTTTTTTGCCG
For B2, the Kd in data set [4] worked out at 6 ± 2.3 nM; in [5], 66.8 ± 10.6 nM; in [6], 47.1 ± 4.7 nM; in data set [3] it was 4.9 ± 2.4 nM; in data set [7], 300 ± 33.6 nM; in [8] it was 34.1 ± 7 nM. Further, the Kd in data set [10] came to 94 ± 8 nM; in [11], 175 ± 4.5 nM; in data set [12], 6400 nM. The binding result in [9] was “binds”.
CAUGAUUCUUAUACGUACGACGGAAGAUGAGAAUUAUGGU (structured_RNA) [Hairpin 2]: the binding result in data set [9] is “binds”. This molecule registered a Kd in data set [1] of 61.5 ± 18.3 nM.
As to AAAAAAAAAAAAAAAAAAAAAAAAAAA (ssRNA) [A27], the binding result in [13] is given as “binds”.

B3: 3-base A-tract DNA (dsDNA)
DNA 1: CGGCAAACGAAACGGCAAACGAAACGGCAAACGAAA
DNA 2: TTTCGTTTGCCGTTTCGTTTGCCGTTTCGTTTGCCG
On to B3, for which binding in data set [3] was put at a Kd of 19.4 ± 6 nM.
